Data from US20150232507A1 (ERA BIOTECH S A, published 2015).

Columns and labels:
Experiment in all cases: cell-based or functional assay
[1] = biological target: T1, N1^C: NrdJ1^C-[C-extein]linker-Trx-EFRSHHHHHH fusion protein
T1 chain: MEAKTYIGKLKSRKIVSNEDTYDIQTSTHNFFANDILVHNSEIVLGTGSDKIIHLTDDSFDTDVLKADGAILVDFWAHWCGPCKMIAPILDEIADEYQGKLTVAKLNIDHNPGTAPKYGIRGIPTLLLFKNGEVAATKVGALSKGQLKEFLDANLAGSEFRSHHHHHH

[2] = biological target: T1, N1^C: …
[3] = biological target: T2, I1^C: IMPDH1^C-[C-extein]linker-Trx-EFRSHHHHHH fusion protein
T2 chain: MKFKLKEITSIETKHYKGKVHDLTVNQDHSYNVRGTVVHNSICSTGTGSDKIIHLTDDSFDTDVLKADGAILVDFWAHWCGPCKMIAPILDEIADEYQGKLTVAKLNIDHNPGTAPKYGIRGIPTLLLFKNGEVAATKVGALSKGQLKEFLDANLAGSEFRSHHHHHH

[4] = biological target: T2, I1^C: …
[5] = biological target: T3, G1^C: Gp41.1^C-[C-extein]linker-Trx-EFRSHHHHHH fusion protein
T3 chain: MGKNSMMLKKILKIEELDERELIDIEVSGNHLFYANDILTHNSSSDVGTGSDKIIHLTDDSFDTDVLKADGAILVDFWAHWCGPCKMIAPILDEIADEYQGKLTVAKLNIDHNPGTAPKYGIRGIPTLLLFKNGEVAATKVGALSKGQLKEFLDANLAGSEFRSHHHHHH

[6] = biological target: T3, G1^C: …
[7] = biological target: T4, G8^C: Gp41.8^C-[C-extein]linker-Trx-EFRSHHHHHH fusion protein
T4 chain: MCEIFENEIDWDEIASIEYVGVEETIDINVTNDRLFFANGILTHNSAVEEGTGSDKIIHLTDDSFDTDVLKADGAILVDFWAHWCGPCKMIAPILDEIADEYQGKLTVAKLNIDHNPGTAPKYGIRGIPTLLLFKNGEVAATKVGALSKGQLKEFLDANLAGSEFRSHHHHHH

[8] = biological target: T4, G8^C: …
[9] = biological target: T3, G1^C: …
[10] = biological target: T4, G8^C: …
[11] = biological target: T1, N1^C: …
[12] = biological target: T2, I1^C: …

B1: N1^N: StreptagII-gpD-linker[N-extein]-NrdJ1^N-GGHHHHHH fusion protein (other)
chain: MASWSHPQFEKASKETFTHYQPQGNSDPAHTATAPGGLSAKAPAMTPLMLDTSSRKLVAWDGTTDGAAVGILAVAADQTSTTLTFYKSGTFRYEDVLWPEAASDETKKRTAFAGTAISIVGSGTNPCCLVGSSEIITRNYGKTTIKEVVEIFDNDKNIQVLAFNTHTDNIEWAPIKAAQLTRPNAELVELEINTLHGVKTIRCTPDHPVYTKNRDYVRADELTDDDELVVAIGGHHHHHH
[1]
  trans-splicing first order rate constant k, 25 °C: 0.062 s⁻¹
  trans-splicing t1/2, 25 °C: 0.333 min
[2]
  splice product formation at 5 minutes, 25 °C: ~90%
  trans-splicing speed, fold faster than Npu DnaE, 25 °C: 9 fold

B2: I1^N: StreptagII-gpD-linker[N-extein]-IMPDH1^N-GGHHHHHH fusion protein (other)
chain: MASWSHPQFEKASKETFTHYQPQGNSDPAHTATAPGGLSAKAPAMTPLMLDTSSRKLVAWDGTTDGAAVGILAVAADQTSTTLTFYKSGTFRYEDVLWPEAASDETKKRTAFAGTAISIVGSGIGGGCFVPGTLVNTENGLKKIEEIKVGDKVFSHTGKLQEVVDTLIFDRDEEIISINGIDCTKNHEFYVIDKENANRVNEDNIHLFARWVHAEELDMKKHLLIELEGGHHHHHH
[3]
  trans-splicing first order rate constant k, 25 °C: 0.02 s⁻¹
  trans-splicing t1/2, 25 °C: 0.567 min
[4]
  splice product formation at 5 minutes, 25 °C: ~90%
  trans-splicing speed, fold faster than Npu DnaE, 25 °C: 7 fold

B3: G1^N: StreptagII-gpD-linker[N-extein]-Gp41.1^N-GGHHHHHH fusion protein (other)
chain: MASWSHPQFEKASKETFTHYQPQGNSDPAHTATAPGGLSAKAPAMTPLMLDTSSRKLVAWDGTTDGAAVGILAVAADQTSTTLTFYKSGTFRYEDVLWPEAASDETKKRTAFAGTAISIVGSTRSGYCLDLKTQVQTPQGMKEISNIQVGDLVLSNTGYNEVLNVFPKSKKKSYKITLEDGKEIICSEEHLFPTQTGEMNISGGLKEGMCLYVKEGGHHHHHH
[5]
  trans-splicing first order rate constant k, 25 °C: 0.057 s⁻¹
  trans-splicing t1/2, 25 °C: 0.2 min
[6]
  splice product formation at 5 minutes, 25 °C: ~90%
  trans-splicing activity in 4 M urea after 1 hour, relative to optimized conditions: ~50%
  trans-splicing activity, fold faster than Npu DnaE, 12 °C: 6 fold
  trans-splicing activity, fold faster than Npu DnaE, 25 °C: 15 fold
  trans-splicing activity, fold faster than Npu DnaE, 37 °C: 10 fold
  trans-splicing speed, fold faster than Npu DnaE, 25 °C: 31 fold

B4: G8^N: StreptagII-gpD-linker[N-extein]-Gp41.8^N-GGHHHHHH fusion protein (other)
chain: MASWSHPQFEKASKETFTHYQPQGNSDPAHTATAPGGLSAKAPAMTPLMLDTSSRKLVAWDGTTDGAAVGILAVAADQTSTTLTFYKSGTFRYEDVLWPEAASDETKKRTAFAGTAISIVGSSQLNRCLSLDTMVVTNGKAIEIRDVKVGDWLESECGPVQVTEVLPIIKQPVFEIVLKSGKKIRVSANHKFPTKDGLKTINSGLKVGDFLRSRAKGGHHHHHH
[7]
  trans-splicing first order rate constant k, 25 °C: 0.017 s⁻¹
  trans-splicing t1/2, 25 °C: 0.667 min
[8]
  splice product formation at 5 minutes, 25 °C: ~90%
  trans-splicing speed, fold faster than Npu DnaE, 25 °C: 6 fold

B5: G1^N(C1A): StreptagII-gpD-linker[N-extein]-Gp41.1^N(C1A)-GGHHHHHH fusion protein (other)
chain: MASWSHPQFEKASKETFTHYQPQGNSDPAHTATAPGGLSAKAPAMTPLMLDTSSRKLVAWDGTTDGAAVGILAVAADQTSTTLTFYKSGTFRYEDVLWPEAASDETKKRTAFAGTAISIVGSTRSGYALDLKTQVQTPQGMKEISNIQVGDLVLSNTGYNEVLNVFPKSKKKSYKITLEDGKEIICSEEHLFPTQTGEMNISGGLKEGMCLYVKEGGHHHHHH
[9]
  C-terminal cleavage k, 25 °C: 0.000595 s⁻¹
  C-terminal cleavage t1/2, 25 °C: 19.4 min

B6: G8^N(C1A): StreptagII-gpD-linker[N-extein]-Gp41.8^N(C1A)-GGHHHHHH fusion protein (other)
chain: MASWSHPQFEKASKETFTHYQPQGNSDPAHTATAPGGLSAKAPAMTPLMLDTSSRKLVAWDGTTDGAAVGILAVAADQTSTTLTFYKSGTFRYEDVLWPEAASDETKKRTAFAGTAISIVGSSQLNRALSLDTMVVTNGKAIEIRDVKVGDWLESECGPVQVTEVLPIIKQPVFEIVLKSGKKIRVSANHKFPTKDGLKTINSGLKVGDFLRSRAKGGHHHHHH
[10]
  C-terminal cleavage k, 25 °C: 9.5e-05 s⁻¹
  C-terminal cleavage t1/2, 25 °C: 122 min

B7: N1^N(C1A): StreptagII-gpD-linker[N-extein]-NrdJ1^N(C1A)-GGHHHHHH fusion protein (other)
chain: MASWSHPQFEKASKETFTHYQPQGNSDPAHTATAPGGLSAKAPAMTPLMLDTSSRKLVAWDGTTDGAAVGILAVAADQTSTTLTFYKSGTFRYEDVLWPEAASDETKKRTAFAGTAISIVGSGTNPCALVGSSEIITRNYGKTTIKEVVEIFDNDKNIQVLAFNTHTDNIEWAPIKAAQLTRPNAELVELEINTLHGVKTIRCTPDHPVYTKNRDYVRADELTDDDELVVAIGGHHHHHH
[11]
  C-terminal cleavage k, 25 °C: 0.00027 s⁻¹
  C-terminal cleavage t1/2, 25 °C: 43 min

B8: I1^N(C1A): StreptagII-gpD-linker[N-extein]-IMPDH1^N(C1A)-GGHHHHHH fusion protein (other)
chain: MASWSHPQFEKASKETFTHYQPQGNSDPAHTATAPGGLSAKAPAMTPLMLDTSSRKLVAWDGTTDGAAVGILAVAADQTSTTLTFYKSGTFRYEDVLWPEAASDETKKRTAFAGTAISIVGSGIGGGAFVPGTLVNTENGLKKIEEIKVGDKVFSHTGKLQEVVDTLIFDRDEEIISINGIDCTKNHEFYVIDKENANRVNEDNIHLFARWVHAEELDMKKHLLIELEGGHHHHHH
[12]
  C-terminal cleavage k, 25 °C: 0.000365 s⁻¹
  C-terminal cleavage t1/2, 25 °C: 31.6 min
